Reference: the supplement of paper PMC9112550, “Optimization of the antimicrobial peptide Bac7 by deep mutational scanning” (BMC Biology, 2022)

Test system: Escherichia coli TOP10
Assay: shrunken log2 fold change of peptide-encoding DNA abundance (4.5 h post-induction vs induction); higher = less antimicrobial activity (less host growth inhibition)
Settings: time post-induction: 4.5 h; library: site-saturation at positions 5, 18, 19, 20
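Note: peptides expressed intracellularly from a pBAD plasmid library in pooled LB shake-flask culture, induced with 0.3% L-arabinose, DNA abundance read by NGS, three biological replicates, DESeq2 with apeglm shrinkage.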

| Sequence | shrunken log2 fold change |
| --- | --- |
| RRIRKRPPRLPRPRPRPQDDPRP | 0.00685 |
| RRIRPRPPRLPRPRPRPMLPPRP | 0.0406 |
| RRIRNRPPRLPRPRPRPMPIPRP | -0.0173 |
| RRIRQRPPRLPRPRPRPFPIPRP | -0.0231 |
| RRIRYRPPRLPRPRPRPFIMPRP | -0.313 |
| RRIRVRPPRLPRPRPRPALWPRP | 0.57 |
| RRIRQRPPRLPRPRPRPFQIPRP | 0.0399 |
| RRIRVRPPRLPRPRPRPGEGPRP | 0.62 |
| RRIRPRPPRLPRPRPRPCTIPRP | -0.536 |
| RRIRYRPPRLPRPRPRPAGMPRP | -0.0428 |
| RRIRRRPPRLPRPRPRPNWWPRP | 1.05 |
| RRIRFRPPRLPRPRPRPISAPRP | 0.0624 |
| RRIRMRPPRLPRPRPRPQMWPRP | 0.635 |
| RRIRSRPPRLPRPRPRPGFKPRP | 0.122 |
| RRIRDRPPRLPRPRPRPPPFPRP | 0.321 |
| RRIRCRPPRLPRPRPRPYDPPRP | -0.914 |
| RRIRWRPPRLPRPRPRPFIAPRP | -0.291 |
| RRIRARPPRLPRPRPRPRPYPRP | 0.375 |
| RRIRDRPPRLPRPRPRPFYAPRP | -0.439 |
| RRIRTRPPRLPRPRPRPNWQPRP | 0.0832 |
| RRIRCRPPRLPRPRPRPQTHPRP | 0.0541 |
| RRIRGRPPRLPRPRPRPGIDPRP | 0.607 |
| RRIRHRPPRLPRPRPRPTRFPRP | 1.65 |
| RRIRFRPPRLPRPRPRPKWCPRP | -0.183 |
| RRIRWRPPRLPRPRPRPCQCPRP | -0.000687 |

| Sequence | shrunken log2 fold change |
| --- | --- |
| RRIRMRPPRLPRPRPRPVVRPRP | 0.0837 |
| RRIRCRPPRLPRPRPRPDLPPRP | -0.265 |
| RRIRKRPPRLPRPRPRPTNWPRP | 0.689 |
| RRIRFRPPRLPRPRPRPGDCPRP | -0.0759 |
| RRIRIRPPRLPRPRPRPRNYPRP | 0.0483 |
| RRIRFRPPRLPRPRPRPENIPRP | 0.0737 |
| RRIRPRPPRLPRPRPRPRRHPRP | 0.241 |
| RRIRFRPPRLPRPRPRPMCGPRP | -0.164 |
| RRIRCRPPRLPRPRPRPFCCPRP | -0.175 |
| RRIRFRPPRLPRPRPRPNVGPRP | -0.0278 |
| RRIRWRPPRLPRPRPRPPAKPRP | 0.56 |
| RRIRIRPPRLPRPRPRPWINPRP | -0.379 |
| RRIRVRPPRLPRPRPRPVLAPRP | 0.239 |
| RRIRKRPPRLPRPRPRPPFWPRP | 1.2 |
| RRIRMRPPRLPRPRPRPHPYPRP | 0.168 |
| RRIRDRPPRLPRPRPRPTQGPRP | 0.797 |
| RRIRGRPPRLPRPRPRPVPLPRP | 0.13 |
| RRIRKRPPRLPRPRPRPGPRPRP | 1.08 |
| RRIRSRPPRLPRPRPRPKHIPRP | -0.368 |
| RRIRSRPPRLPRPRPRPWIFPRP | -0.14 |
| RRIRERPPRLPRPRPRPMFYPRP | -0.0786 |
| RRIRWRPPRLPRPRPRPDQEPRP | -0.00154 |
| RRIRQRPPRLPRPRPRPNHIPRP | -0.526 |
| RRIRDRPPRLPRPRPRPMSMPRP | 0.017 |
| RRIRIRPPRLPRPRPRPKGNPRP | -0.459 |

| Sequence | shrunken log2 fold change |
| --- | --- |
| RRIRSRPPRLPRPRPRPLLDPRP | 0.218 |
| RRIRLRPPRLPRPRPRPSMDPRP | -0.327 |
| RRIRARPPRLPRPRPRPYCEPRP | 0.0687 |
| RRIRCRPPRLPRPRPRPHTWPRP | -0.216 |
| RRIRVRPPRLPRPRPRPWKQPRP | -0.0479 |
| RRIRFRPPRLPRPRPRPHTDPRP | -0.736 |
| RRIRHRPPRLPRPRPRPAWHPRP | -0.132 |
| RRIRPRPPRLPRPRPRPRESPRP | 0.0752 |
| RRIRSRPPRLPRPRPRPTQMPRP | 0.502 |
| RRIRMRPPRLPRPRPRPPIYPRP | -0.0765 |
| RRIRCRPPRLPRPRPRPHTLPRP | -0.731 |
| RRIRRRPPRLPRPRPRPPTFPRP | 0.0767 |
| RRIRFRPPRLPRPRPRPQEFPRP | 0.0412 |
| RRIRHRPPRLPRPRPRPIWDPRP | -0.00794 |
| RRIRNRPPRLPRPRPRPVVAPRP | -0.0949 |
| RRIRGRPPRLPRPRPRPPAWPRP | 1.34 |
| RRIRCRPPRLPRPRPRPTVLPRP | -0.174 |
| RRIRHRPPRLPRPRPRPLYTPRP | -0.57 |
| RRIRNRPPRLPRPRPRPSCHPRP | 1.83 |
| RRIRYRPPRLPRPRPRPMSVPRP | -0.0288 |
| RRIRWRPPRLPRPRPRPWSGPRP | 0.076 |
| RRIRIRPPRLPRPRPRPDEQPRP | 0.0601 |
| RRIRERPPRLPRPRPRPMCYPRP | -0.403 |
| RRIRHRPPRLPRPRPRPPLPPRP | 0.476 |
| RRIRHRPPRLPRPRPRPAMNPRP | -0.0974 |

| Sequence | shrunken log2 fold change |
| --- | --- |
| RRIRTRPPRLPRPRPRPECVPRP | 0.148 |
| RRIRSRPPRLPRPRPRPYTSPRP | -0.14 |
| RRIRYRPPRLPRPRPRPWVCPRP | -0.0275 |
| RRIRSRPPRLPRPRPRPYYWPRP | -0.00332 |
| RRIRPRPPRLPRPRPRPKDLPRP | -0.146 |
| RRIRIRPPRLPRPRPRPVMTPRP | -0.166 |
| RRIRARPPRLPRPRPRPLNFPRP | -0.249 |
| RRIRNRPPRLPRPRPRPLMDPRP | 0.0545 |
| RRIRLRPPRLPRPRPRPDCYPRP | -0.558 |
| RRIRIRPPRLPRPRPRPSAHPRP | -0.202 |
| RRIRTRPPRLPRPRPRPRKTPRP | 0.111 |
| RRIRYRPPRLPRPRPRPDMLPRP | -0.0808 |
| RRIRLRPPRLPRPRPRPDACPRP | 0.252 |
| RRIRDRPPRLPRPRPRPHDWPRP | 0.807 |
| RRIRFRPPRLPRPRPRPVLHPRP | -0.376 |
| RRIRYRPPRLPRPRPRPTRMPRP | 0.09 |
| RRIRMRPPRLPRPRPRPQRYPRP | -0.00185 |
| RRIRERPPRLPRPRPRPVQCPRP | 0.00166 |
| RRIRDRPPRLPRPRPRPCYHPRP | -0.019 |
| RRIRYRPPRLPRPRPRPGYCPRP | -0.235 |
| RRIRGRPPRLPRPRPRPRVWPRP | 0.547 |
| RRIRLRPPRLPRPRPRPKPHPRP | 0.207 |
| RRIRTRPPRLPRPRPRPFEYPRP | -0.0571 |
| RRIRQRPPRLPRPRPRPVVWPRP | 0.586 |
| RRIRPRPPRLPRPRPRPHEWPRP | 0.278 |

| Sequence | shrunken log2 fold change |
| --- | --- |
| RRIRLRPPRLPRPRPRPENNPRP | -0.406 |
| RRIRLRPPRLPRPRPRPFSWPRP | -0.213 |
| RRIRDRPPRLPRPRPRPNHGPRP | 1.15 |
| RRIRRRPPRLPRPRPRPNKVPRP | -0.213 |
| RRIRPRPPRLPRPRPRPGSDPRP | -0.00287 |
| RRIRLRPPRLPRPRPRPMCEPRP | -0.0027 |
| RRIRTRPPRLPRPRPRPYTWPRP | -0.465 |
| RRIRARPPRLPRPRPRPYQGPRP | -0.135 |
| RRIRQRPPRLPRPRPRPGGSPRP | -0.141 |
| RRIRARPPRLPRPRPRPDSLPRP | 0.0733 |
| RRIRSRPPRLPRPRPRPLPWPRP | 0.21 |
| RRIRIRPPRLPRPRPRPAFPPRP | -0.0288 |
| RRIRIRPPRLPRPRPRPIMTPRP | -0.26 |
| RRIRCRPPRLPRPRPRPHKYPRP | -0.618 |
| RRIRERPPRLPRPRPRPYPQPRP | -0.898 |
| RRIRLRPPRLPRPRPRPHSCPRP | -0.884 |
| RRIRERPPRLPRPRPRPQYDPRP | -0.418 |
| RRIRPRPPRLPRPRPRPMSRPRP | -0.0311 |
| RRIRWRPPRLPRPRPRPAQGPRP | 0.27 |
| RRIRFRPPRLPRPRPRPDSFPRP | -0.00668 |
| RRIRKRPPRLPRPRPRPSFWPRP | 0.299 |
| RRIRRRPPRLPRPRPRPTDCPRP | 0.0967 |
| RRIRMRPPRLPRPRPRPYLRPRP | 0.0522 |
| RRIRARPPRLPRPRPRPFQNPRP | -0.124 |
| RRIRLRPPRLPRPRPRPCATPRP | 0.331 |

| Sequence | shrunken log2 fold change |
| --- | --- |
| RRIRWRPPRLPRPRPRPPQSPRP | 0.128 |
| RRIRERPPRLPRPRPRPYFKPRP | -0.258 |
| RRIRSRPPRLPRPRPRPGCAPRP | 0.46 |
| RRIRARPPRLPRPRPRPQVIPRP | -0.109 |
| RRIRARPPRLPRPRPRPERMPRP | 0.618 |
| RRIRERPPRLPRPRPRPIMFPRP | -0.193 |
| RRIRWRPPRLPRPRPRPALFPRP | 0.496 |
| RRIRQRPPRLPRPRPRPLDGPRP | 0.237 |
| RRIRNRPPRLPRPRPRPQKHPRP | -0.227 |
| RRIRNRPPRLPRPRPRPSNGPRP | -0.12 |
| RRIRGRPPRLPRPRPRPYIFPRP | -0.135 |
| RRIRARPPRLPRPRPRPHIIPRP | -0.0334 |
| RRIRNRPPRLPRPRPRPVCMPRP | -0.0349 |
| RRIRPRPPRLPRPRPRPVRLPRP | 0.238 |
| RRIRHRPPRLPRPRPRPWMMPRP | -0.463 |
| RRIRWRPPRLPRPRPRPSQVPRP | -0.0348 |
| RRIRFRPPRLPRPRPRPKAVPRP | -0.00146 |
| RRIRERPPRLPRPRPRPFDQPRP | -0.0377 |
| RRIRDRPPRLPRPRPRPMGLPRP | -0.00663 |
| RRIRCRPPRLPRPRPRPTCQPRP | 0.00203 |
| RRIRWRPPRLPRPRPRPRFSPRP | 0.0681 |
| RRIRGRPPRLPRPRPRPAGMPRP | 0.737 |
| RRIRTRPPRLPRPRPRPYHAPRP | -0.236 |
| RRIRKRPPRLPRPRPRPGYMPRP | -0.144 |
| RRIRYRPPRLPRPRPRPTDEPRP | -0.00133 |
